± gives the standard deviation of the averaged measurements.
Tested on: ATP
Assay: switch fluorescence ratio, 500 uM ATP over buffer (Cy3 cluster intensity, sum of 5 cycles each) (fold (ratio)); higher = stronger signal-on switching upon ATP binding; sequences stand for … in TCGTCGGCAGCGTCAGATGTGTATAAGAGACAGTTTTTTTTTTTTTTTTTTTTTTTTT…TC
Conditions: aptamer strand: ATP DNA aptamer (quencher-CACCTGGGGGAGTATTGCGGAGGAAGG + anchor), 100 nM annealed; ATP concentration: 500 uM
Outline: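 Per cluster, summed Cy3 intensity from the target cycles was divided by that from the buffer cycles to give the fluorescence ratio, then averaged per switch-domain sequence. Clusters outside 100-1000 RFU were excluded. The Cy3-labelled switching-strand clusters, on a modified Illumina MiSeq flow-cell, were annealed to 100 nM quencher-labelled ATP aptamer and imaged in selection buffer, then after 15 min with 500 uM ATP at 22 °C, for five cycles with NaOH stripping and re-annealing between them.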
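Note: ATP exposure 15 min at 22 °C before imaging.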

Sequence	switch fluorescence ratio
TGGTGCGGGC	1.05 ± 0.12
CCGTATATGT	1.19 ± 0.029
GCTATGAAAA	0.986 ± 0.028
CTGTATGGGT	0.9978 ± 0.0094
AGACAAGGGC	1.06 ± 0.084
TTTAGTGTTG	0.957 ± 0.041
GTATCATGCC	1.01 ± 0.011
GGGTTATCAG	0.981 ± 0.035
TTACTGATCC	1.04 ± 0.019
ATGTGTGTTG	1.04 ± 0.046
TGTTTGTTT	1.03 ± 0.025
ATGTGTATTT	1.03 ± 0.023
AAAGAAGGTG	1.06 ± 0.12
AGCTGGTGGC	1.01 ± 0.078
GCGGATTGAA	0.988 ± 0.044
AGATGTGTGG	0.989 ± 0.053
GGATTAGACG	0.955 ± 0.062
CGTCTTGCCC	0.9853 ± 0.0052
CTGGGAACGA	0.998 ± 0.035
AATGGGGGGT	1.02 ± 0.053
CGGATCTGAA	1.01 ± 0.016
GTATGTACTG	1.04 ± 0.04
GGGAGGGGGT	1 ± 0.035
GTTGGAAGCA	1.1 ± 0.18
TTTGCCGTTC	1.01 ± 0.042

Sequence	switch fluorescence ratio
ATGTTGTTGA	0.998 ± 0.024
AAAGTTCGAG	0.99 ± 0.021
GCGCTTGGAA	1.02 ± 0.049
TCGGGAGCGT	1.01 ± 0.033
CGATTTCAGA	1.009 ± 0.01
TGAAATTTAA	1 ± 0.0065
TCAAGCTTTT	1.01 ± 0.017
GCATAGGGGG	1.03 ± 0.081
ATGTGGAGAC	0.9921 ± 0.005
AGGATGCAGA	1.01 ± 0.024
AATGCTGGTT	1.01 ± 0.015
CCTGGTCGGC	1.02 ± 0.035
ATCGGGGTCG	1.05 ± 0.038
TTATTAAAAT	0.997 ± 0.021
TATTGGCTTC	0.992 ± 0.018
GTGGTTGTCG	0.983 ± 0.015
AAGGGTTAGG	1.03 ± 0.023
GGTTTGGGGC	1.03 ± 0.074
GTTATTGGGT	0.988 ± 0.046
ACGATGACAC	1.289 ± 0.0018
ATGGTACCCT	1.038 ± 0.0052
CTATGTATTG	0.9695 ± 0.0096
ATAGAATCAA	1.02 ± 0.022
TGCAAATTGG	0.992 ± 0.011
TTAATGAGTG	0.99 ± 0.015

Sequence	switch fluorescence ratio
GCGGGTCAAA	0.9883 ± 0.0093
ATAGTGACCG	1.01 ± 0.013
TGAGCCCTTT	1.018 ± 0.0046
GTTATAATCC	1.037 ± 0.0076
TGAATGGAAT	1.04 ± 0.047
TCGGCCAGAG	1.01 ± 0.012
AAAGGGTTAG	1 ± 0.028
AGGGTTAAAT	1 ± 0.012
CGGGGTCGGA	0.999 ± 0.035
GATGGGTATT	0.968 ± 0.015
GGTATCACGG	0.9912 ± 0.0045
GTTATTTTTT	0.987 ± 0.028
AAGTTTGTT	0.983 ± 0.027
TTACTAGTTT	0.981 ± 0.02
ATGATTGGA	0.992 ± 0.015
AGCTATTAAG	0.9947 ± 0.0065
AAGGGGAGTT	0.998 ± 0.028
TGGGGCGC	1.01 ± 0.097
TGTGAGTGTG	0.983 ± 0.015
TGGTTGTAAG	1.03 ± 0.024
TATTTTTTCG	0.987 ± 0.027
TACTCTTTTC	1.02 ± 0.034
TGGTATAGGG	1.01 ± 0.024
TTGGGAAGCG	1.001 ± 0.0093
TGGGTTTTAC	1.01 ± 0.049

Sequence	switch fluorescence ratio
TGGGTTACTT	0.995 ± 0.053
TTGTTGGCGG	0.994 ± 0.025
GCTTTTGGGT	1 ± 0.025
CCTTTCGGGA	1.73 ± 0.87
GACGGTAAAG	0.996 ± 0.037
CATGGAGGTC	1.03 ± 0.026
CCTTAAAAAA	1.04 ± 0.014
CGTGGATGAC	0.9939 ± 0.0096
ACTTCTGGTG	1.23 ± 0.031
ACTGATGAAT	1.06 ± 0.023
AAGGCTGATG	0.983 ± 0.017
GTTTTGGAGT	1.05 ± 0.047
CTGACATGAG	1 ± 0.032
AAGTTCATGG	0.973 ± 0.012
GAGGGGGCTC	1.04 ± 0.028
AGGGAAACTA	0.999 ± 0.013
TGAGATAAGG	0.987 ± 0.03
TAAGTGTTGC	1 ± 0.037
GCCCTGCATG	1.01 ± 0.052
TTCAAAGGGT	1.005 ± 0.0049
ACACCGGGGG	1.13 ± 0.17
GGGAGCGCCG	1.03 ± 0.039
TGGGGGTCTG	1.01 ± 0.045
ATGGACATAC	1.22 ± 0.098
GGGACATAGT	0.9616 ± 0.0037

Sequence	switch fluorescence ratio
AAGAGGCGGG	1 ± 0.019
ACACATGTAT	1 ± 0.045
ATTGATTTAG	0.9756 ± 0.0095
ATGGGGGGCC	0.995 ± 0.026
TAAGCCATTA	1.01 ± 0.0038
GATAATAGGT	0.993 ± 0.016
TTGATATGGT	0.997 ± 0.022
AAGGGAATTT	1.17 ± 0.36
TTATATGATT	0.997 ± 0.036
TATGCTGAAT	1 ± 0.015
CCCAAAATGC	2.87 ± 1.5
ACTCGGGTAC	1.79 ± 0.15
CTTGGAAGGG	0.9683 ± 0.006
ACCCAGCATC	1.49 ± 0.025
TCCCCCACAG	2.05 ± 0.22
GGCCTACCAT	0.9979 ± 0.0091
GCCGTATGCG	0.992 ± 0.019
TGCCGGGTTC	0.979 ± 0.03
GTTTTGTTAT	1.01 ± 0.018
CCATTATTTT	1 ± 0.03
ATAGGAAAAA	0.963 ± 0.059
GTGGCGGATT	1.02 ± 0.013
TACTATCGTT	0.994 ± 0.01
ATTGTGGGCC	0.975 ± 0.023
AGTCAACCGG	1.03 ± 0.034

Sequence	switch fluorescence ratio
GCTAAAGGTA	0.986 ± 0.011
AGAATCGTAT	1.01 ± 0.028
AACGGTGTTT	1.03 ± 0.045
CGGGCTTCCT	1.21 ± 0.22
TCCGGGAATT	1.02 ± 0.021
GTTATTAGTG	0.993 ± 0.016
GCGGGGTACT	1.11 ± 0.055
TCGAGAGTAG	0.948 ± 0.016
ACAGGAGGAG	0.9859 ± 3.2e-05
CGAGGGAATG	1.1 ± 0.18
ATCTGAACGT	1.02 ± 0.074
TGTTGGTAAT	0.996 ± 0.012
TTTGGTGTTT	1.01 ± 0.035
GACGTTTTGG	0.997 ± 0.025
TCAGGGGTTG	1.09 ± 0.17
AATATAGGCG	1.04 ± 0.073
AGGGGTGTT	1.02 ± 0.016
GTACCTATCG	1.01 ± 0.03
TAGTGGGCGA	1.01 ± 0.067
AAAATGTGGG	0.987 ± 0.041
TTGAGCAAGG	1.06 ± 0.089
TGTAACGAAA	1.008 ± 0.0027
TTCGGCGGTG	0.98 ± 0.045
TTTTTCAGCC	1.01 ± 0.046
ATGATGATAG	1.01 ± 0.02

Sequence	switch fluorescence ratio
TTATAGCAGT	1.06 ± 0.04
TAGGGGGGTT	1 ± 0.04
CGTACATTTA	1.03 ± 0.051
TTTGCTTTCT	1.02 ± 0.023
ACGGTTTATG	1.01 ± 0.058
GTTGGGGTCG	0.998 ± 0.037
CGGAGGCAGG	1.21 ± 0.28
CGGTCCGGCG	1.012 ± 0.0011
ATCTAGGGGA	0.9995 ± 0.0066
CAGAAAAAAT	0.978 ± 0.038
TTCAGGCACG	0.986 ± 0.049
TTAAGTTTTG	1.016 ± 0.0078
ATTTGTTTTC	0.953 ± 0.013
CTATATGTTG	0.985 ± 0.053
AAACTTGGCA	1.017 ± 0.0088
TATTATTTCA	0.991 ± 0.024
CTGTTTGTAT	0.978 ± 0.02
TTTCACACGG	1.04 ± 0.066
TAGTGACAGC	1.04 ± 0.014
TTGGGATTTT	1.01 ± 0.033
GGGAAGGTGG	1.04 ± 0.02
TAGGTGAGTT	1.04 ± 0.047
CGTTCACCGG	0.959 ± 0.049
GCTACCCACT	1.46 ± 0.033
TTACACGTTC	1.03 ± 0.018

Sequence	switch fluorescence ratio
CTGGGGGGGA	1.02 ± 0.022
TACTTTGCTT	1.06 ± 0.038
AGGGCTGTGT	0.999 ± 0.046
TGGGGGCCGT	1.02 ± 0.14
TGGTAGGGGG	0.9867 ± 0.0046
GATTTTGCGA	0.983 ± 0.033
TATGTGAGGA	0.989 ± 0.025
GATGATTATC	0.986 ± 0.022
TGGTGGAGCA	0.986 ± 0.024
TTTTTGTTAA	1.01 ± 0.013
GGATTTCATG	1.07 ± 0.12
TCGGACTCGT	1.03 ± 0.044
TGCGGGCAAG	0.992 ± 0.015
TCAAGATTGG	0.986 ± 0.023
CAGTGTGGTC	0.979 ± 0.055
GGGTGACGGG	1.01 ± 0.074
TGGGGGCGTC	1.02 ± 0.036
GGGGAAGACT	0.989 ± 0.016
TTTTAAACTG	1.1 ± 0.066
ATTCATGGGA	1.02 ± 0.031
TAGGATGAGT	0.99997 ± 0.00035
TTGGTCTGGG	1.01 ± 0.064
TCTATTCCCT	1.02 ± 0.027
CAGCAGGCGT	1.03 ± 0.021
CATGGGAGCT	1.01 ± 0.043

From the supplement of paper PMC10126150
